A word on the IC50: it is the point on the concentration scale where inhibition reaches its midpoint. A lower IC50 goes with inhibition by little substance.

The target of the experiment is T1, His-RecA WT, activated as RecA* (nucleoprotein filament on ssDNA with ATPγS) (E. coli, UniProt P0A7G6 1-353).
T1 chain: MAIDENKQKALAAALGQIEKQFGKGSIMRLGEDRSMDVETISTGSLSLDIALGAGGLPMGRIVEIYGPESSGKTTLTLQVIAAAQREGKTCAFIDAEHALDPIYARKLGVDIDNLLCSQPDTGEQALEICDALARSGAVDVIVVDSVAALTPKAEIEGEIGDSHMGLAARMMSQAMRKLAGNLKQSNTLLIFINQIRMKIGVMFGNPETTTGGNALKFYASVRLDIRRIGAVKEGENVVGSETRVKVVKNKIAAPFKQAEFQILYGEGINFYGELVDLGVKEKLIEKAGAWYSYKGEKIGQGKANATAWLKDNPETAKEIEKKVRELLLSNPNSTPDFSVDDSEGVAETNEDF
Nature of the experiment: FP; competition against LexA-δ.

B1: LexA quad-mutant (QM): L89P, Q92W, E152A, K156A (natural protein)
chain: MKALTARQQEVFDLIRDHISQTGMPPTRAEIAQRLGFRSPNAAEEHLKALARKGVIEIVSGASRGIRLLQEEEEGLPLVGRVAAGEPLPAQWHIEGHYQVDPSLFKPNADFLLRVSGMSMKDIGIMDGDLLAVHKTQDVRNGQVVVARIDDAVTVARLKKQGNKVELLPENSEFKPIVVDLRQQSFTIEGLAVGVIRNGDWL
B1 yielded an IC50 of 3800 nM.

B2: His-LexA K156A (natural protein)
chain: MKALTARQQEVFDLIRDHISQTGMPPTRAEIAQRLGFRSPNAAEEHLKALARKGVIEIVSGASRGIRLLQEEEEGLPLVGRVAAGEPLLAQQHIEGHYQVDPSLFKPNADFLLRVSGMSMKDIGIMDGDLLAVHKTQDVRNGQVVVARIDDEVTVARLKKQGNKVELLPENSEFKPIVVDLRQQSFTIEGLAVGVIRNGDWL
In the case of B2, the half-inhibitory concentration (IC50) stood at 500 nM. This IC50 lies about 7.6-fold lower than the previous one.
